Measurements taken from US20200317768A1 (published 2020).

Columns and labels:
Experiment in all cases: SPR (BIACORE); KD of parent SG1 / KD of variant
[1] = target: T1, human FcγRIIb extracellular domain, C-terminal His-tag (human, UniProt P31994 43-217)
T1 construct: also called humanFcgRIIb; not shown: His-tag added to C-terminus
T1 sequence: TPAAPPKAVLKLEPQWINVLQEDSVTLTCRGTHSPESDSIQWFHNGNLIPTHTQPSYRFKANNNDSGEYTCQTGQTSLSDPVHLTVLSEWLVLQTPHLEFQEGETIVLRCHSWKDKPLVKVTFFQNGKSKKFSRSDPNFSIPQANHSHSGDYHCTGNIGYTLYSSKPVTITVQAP

[2] = target: T2, cynomolgus monkey FcγRIIa2 extracellular domain, C-terminal His-tag (cynomolgus monkey)
T2 construct: also called cyno FcγRIIa2; cynoFcgRIIa2; not shown: His-tag added to C-terminus
T2 chain: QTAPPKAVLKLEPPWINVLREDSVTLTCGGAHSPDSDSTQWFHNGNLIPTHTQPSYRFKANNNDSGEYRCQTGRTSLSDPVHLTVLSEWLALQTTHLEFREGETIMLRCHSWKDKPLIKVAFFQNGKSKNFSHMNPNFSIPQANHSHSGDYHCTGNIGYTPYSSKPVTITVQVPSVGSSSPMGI

[3] = target: T3, cynomolgus monkey FcγRIIIaS extracellular domain, C-terminal His-tag (cynomolgus monkey, UniProt A3RFZ7 21-206 (rhesus entry))
T3 construct: also called cyno FcγRIIIaS; cynoFcγRIIIaS; not shown: His-tag added to C-terminus
T3 sequence (A3RFZ7 21-206): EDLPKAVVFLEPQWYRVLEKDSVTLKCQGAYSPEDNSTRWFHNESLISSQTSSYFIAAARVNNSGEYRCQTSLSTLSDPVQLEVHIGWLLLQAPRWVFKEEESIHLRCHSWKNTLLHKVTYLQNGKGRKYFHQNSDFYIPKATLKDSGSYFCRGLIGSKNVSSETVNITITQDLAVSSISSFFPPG

[4] = target: T4, human FcγRIIaR extracellular domain, C-terminal His-tag (human, UniProt P12318 34-217)
T4 construct: also called human FcγRIIa (type R); FcgRIIaR; not shown: His-tag added to C-terminus
T4 chain: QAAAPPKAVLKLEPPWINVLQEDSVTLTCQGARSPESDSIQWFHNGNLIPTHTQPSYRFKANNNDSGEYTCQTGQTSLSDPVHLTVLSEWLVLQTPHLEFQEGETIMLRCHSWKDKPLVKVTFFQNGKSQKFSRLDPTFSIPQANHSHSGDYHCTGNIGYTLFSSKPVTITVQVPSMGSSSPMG

[5] = target: T5, human FcγRIIaH extracellular domain, C-terminal His-tag (human, UniProt P12318 34-217)
T5 construct: also called human FcγRIIa (type H); FcgRIIaH; not shown: His-tag added to C-terminus
T5 sequence: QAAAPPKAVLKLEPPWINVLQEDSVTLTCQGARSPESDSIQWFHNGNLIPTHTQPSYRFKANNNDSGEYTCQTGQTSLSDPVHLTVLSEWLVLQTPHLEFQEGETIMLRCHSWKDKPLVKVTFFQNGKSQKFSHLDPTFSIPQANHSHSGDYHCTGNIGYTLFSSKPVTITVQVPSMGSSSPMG

[6] = target: T6, cynomolgus monkey FcγRIIb extracellular domain, C-terminal His-tag (cynomolgus monkey)
T6 construct: also called cyno FcγRIIb; cynoFcγRIIb; not shown: His-tag added to C-terminus
T6 chain: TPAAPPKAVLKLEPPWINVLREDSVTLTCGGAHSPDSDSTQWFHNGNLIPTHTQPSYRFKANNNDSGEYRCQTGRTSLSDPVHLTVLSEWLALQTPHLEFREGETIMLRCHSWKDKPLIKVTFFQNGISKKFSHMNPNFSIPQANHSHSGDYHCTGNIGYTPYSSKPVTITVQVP

[7] = target: T7, cynomolgus monkey FcγRIIa1 extracellular domain, C-terminal His-tag (cynomolgus monkey)
T7 construct: also called cyno FcγRIIa1; cynoFcgRIIa1; not shown: His-tag added to C-terminus
T7 chain: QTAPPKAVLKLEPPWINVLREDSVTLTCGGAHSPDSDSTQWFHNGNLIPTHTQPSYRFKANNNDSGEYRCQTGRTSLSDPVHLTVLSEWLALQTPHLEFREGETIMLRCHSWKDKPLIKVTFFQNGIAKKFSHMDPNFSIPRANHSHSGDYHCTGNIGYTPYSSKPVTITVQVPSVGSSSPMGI

Measured: KD fold (SG1 = 1)

B1: MS_M103205H795-SG1/M103202L889-SK1 (antibody, human IgG1, kappa)
heavy: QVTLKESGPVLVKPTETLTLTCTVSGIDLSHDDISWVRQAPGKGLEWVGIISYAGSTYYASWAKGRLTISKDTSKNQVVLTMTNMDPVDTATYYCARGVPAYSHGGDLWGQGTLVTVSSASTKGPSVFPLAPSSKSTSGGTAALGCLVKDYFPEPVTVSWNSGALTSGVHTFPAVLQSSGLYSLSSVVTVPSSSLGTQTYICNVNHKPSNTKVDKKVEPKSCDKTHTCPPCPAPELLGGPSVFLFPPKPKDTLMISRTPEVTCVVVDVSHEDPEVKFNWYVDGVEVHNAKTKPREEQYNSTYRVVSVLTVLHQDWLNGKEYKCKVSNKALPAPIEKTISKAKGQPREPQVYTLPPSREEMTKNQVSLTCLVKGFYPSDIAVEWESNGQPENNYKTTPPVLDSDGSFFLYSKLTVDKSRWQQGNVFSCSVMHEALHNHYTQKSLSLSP
light: DIVMTQSPATLSLSPGERATLSCTSSQSVYHANWLSWFQQKPGQPPKLLIYWASTLAYGVPSRFSGSGSGTDFTLTISSLQPEDAATYYCAGGYGGGRYAFGQGTKVEIKRTVAAPSVFIFPPSDEQLKSGTASVVCLLNNFYPREAKVQWKVDNALQSGNSQESVTEQDSKDSTYSLSSTLTLSKADYEKHKVYACEVTHQGLSSPVTKSFNRGEC
notes: Parent antibody with SG1 human heavy chain constant region; also called MS1032LO06-SG1
1 fold: [1] | [2] | [3] | [4] | [5] | [6] | [7]
